This is an account of results in paper doi:10.1101/2022.02.07.479471 (bioRxiv, 2022).

The target in this test is SARS-CoV-2 nsp12 (RNA-dependent RNA polymerase with N-terminal NiRAN domain) (SARS-CoV-2, UniProt P0DTD1). Briefly: cryo-EM structure.

B1: SARS-CoV-2 nsp9 with native N-terminus (natural protein)
chain: NNELSPVALRQMSCAAGTTQTACTDDNALAYYNTTKGGRFVLALLSDLQDLKWARFPKSDGTGTIYTELEPPCRFVTDTPKGPKVKYLYFIKGLNNLNRGMVLGSLAATVRLQ
On to B1, for which the binding result is reported as “binds”.
